Patent US20230312684A1 (PINETREE THERAPEUTICS, published 2023)

Columns and labels:
[1] = target: RSV-F (amino acids 1-529), (Extracellular Domain) protein (His tag), ABIN2006856 (respiratory syncytial virus) (UniProt P03420); test: ELISA, RSV F coated, read on SpectroMax
[2] = target: RSV-F (amino acids 1-529), (Extracellular Domain) protein (His tag), ABIN2006856 (respiratory syncytial virus) (UniProt P03420); test: ELISA, RSV F coated, read on Varioskan plate reader
[3] = target: Influenza A H5N1 virus (IAV H5N1) (target of the Octet assay of Example 18; protein not specified) (Influenza A H5N1 virus); test: BLI (Octet Red 96), binding affinity to IAV H5N1
[4] = target: SARS-CoV-2 (antigen of the ELISA of Example 17; protein not specified) (SARS-CoV-2); test: ELISA by the method of Example 15, SARS-CoV-2 antigen
[5] = target: RSV-F (amino acids 1-529), (Extracellular Domain) protein (His tag), ABIN2006856 (respiratory syncytial virus) (UniProt P03420); test: ELISA, RSV F coated, anti-human IgG-HRP
[6] = target: Recombinant RSV F protein (Octet assays of Examples 14 and 16) (respiratory syncytial virus, UniProt P03420 26-529)

SEQ ID NO: 113, b1-Fc (NRP1, WT, single b1) (Fc fusion)
EC50 [1]: 323 nM | EC50 [2]: 372 nM | Kd [3]: 18.9 nM

SEQ ID NO: 121, b1b1-b1b1-Fc (NRP1, WT, quadruple b1) (Fc fusion)
EC50 [1]: 5.9 nM | EC50 [2]: 5.65 nM | Kd [3]: 0.00782 nM

SEQ ID NO: 122, b1b2-Fc (NRP1, WT, single b1b2) (Fc fusion)
EC50 [4]: 3.09 nM | EC50 [5]: 23.3 nM | Kd [3]: 17.5 nM

SEQ ID NO: 138, b1b2-b1b2-Fc (NRP1, WT, double b1b2) (Fc fusion)
EC50 [4]: 110 nM

SEQ ID NO: 154, b1b2-Fc (NRP2, WT, single b1b2) (Fc fusion)
EC50 [5]: 185 nM

SEQ ID NO: 191, b1b2-Fc (NRP1, WT) (Fc fusion)
EC50 [1]: 95.7 nM | EC50 [2]: 91 nM

SEQ ID NO: 192, b1b2-Fc-ACE2-1 (NRP1 b1b2 at the N-terminus, alpha domain of ACE2 at the C-terminus) (Fc fusion)
EC50 [5]: 53.9 nM

SEQ ID NO: 203, b1b2-Fc-ACE2 (NRP1, WT, ACE2 alpha domain) (Fc fusion)
EC50 [5]: 69.7 nM

SEQ ID NO: 205, b1b2-Fc-ACE2 (NRP1, WT, repeated ACE2 alpha domain) (Fc fusion)
EC50 [5]: 39.2 nM

SEQ ID NO: 206, Nrp1(b1)/Nrp2(b2)-Fc (WT) (Fc fusion)
EC50 [5]: 22.7 nM

SEQ ID NO: 207, Nrp2(b1)/Nrp1(b2)-Fc (WT) (Fc fusion)
EC50 [5]: 17.1 nM

B1: SEQ ID NO: 113, b1-Fc (NRP1, WT, single b1) (Fc fusion)
chain: EDFKCMEALGMESGEIHSDQITASSQYSTNWSAERSRLNYPENGWTPGEDSYREWIQVDLGLLRFVTAVGTQGAISKETKKKYYVKTYKIDVSSNGEDWITIKEGNKPVLFQGNTNPTDVVVAVFPKPLITRFVRIKPATWETGISMRFEVYGCGGGGSGGGGSEPKSCDKTHTCPPCPAPELLGGPSVFLFPPKPKDTLMISRTPEVTCVVVDVSHEDPEVKFNWYVDGVEVHNAKTKPREEQYNSTYRVVSVLAVLHQDWLNGKEYKCKVSNKALPAPIEKTISKAKGQPREPQVYTLPPSRDELTKNQVSLTCLVKGFYPSDIAVAWESNGQPENNYKTTPPVLDSDGSFFLYSKLTVDKSRWQQGNVFSCSVMHEALHAHYTQKSLSLSPGK
Kd [6]: < 1 nM

B2: SEQ ID NO: 121, b1b1-b1b1-Fc (NRP1, WT, quadruple b1) (Fc fusion)
chain: EDFKCMEALGMESGEIHSDQITASSQYSTNWSAERSRLNYPENGWTPGEDSYREWIQVDLGLLRFVTAVGTQGAISKETKKKYYVKTYKIDVSSNGEDWITIKEGNKPVLFQGNTNPTDVVVAVFPKPLITRFVRIKPATWETGISMRFEVYGCKITDYPCMEALGMESGEIHSDQITASSQYSTNWSAERSRLNYPENGWTPGEDSYREWIQVDLGLLRFVTAVGTQGAISKETKKKYYVKTYKIDVSSNGEDWITIKEGNKPVLFQGNTNPTDVVVAVFPKPLITRFVRIKPATWETGISMRFEVYGCGGGGSGGGGSCMEALGMESGEIHSDQITASSQYSTNWSAERSRLNYPENGWTPGEDSYREWIQVDLGLLRFVTAVGTQGAISKETKKKYYVKTYKIDVSSNGEDWITIKEGNKPVLFQGNTNPTDVVVAVFPKPLITRFVRIKPATWETGISMRFEVYGCKITDYPCMEALGMESGEIHSDQITASSQYSTNWSAERSRLNYPENGWTPGEDSYREWIQVDLGLLRFVTAVGTQGAISKETKKKYYVKTYKIDVSSNGEDWITIKEGNKPVLFQGNTNPTDVVVAVFPKPLITRFVRIKPATWETGISMRFEVYGCGGGGSGGGGSEPKSCDKTHTCPPCPAPELLGGPSVFLFPPKPKDTLMISRTPEVTCVVVDVSHEDPEVKFNWYVDGVEVHNAKTKPREEQYNSTYRVVSVLAVLHQDWLNGKEYKCKVSNKALPAPIEKTISKAKGQPREPQVYTLPPSRDELTKNQVSLTCLVKGFYPSDIAVAWESNGQPENNYKTTPPVLDSDGSFFLYSKLTVDKSRWQQGNVFSCSVMHEALHAHYTQKSLSLSPGK
Kd [6]: < 1 nM
